Measurements reported in publication PMC7881136, “Mechanism of karyopherin-β2 binding and nuclear import of ALS variants FUS(P525L) and FUS(R495X)” (Scientific Reports, 2021).
Where a chain is given by its changes, count along the chain named. Numbers in names are those of the source.

T1: Kapβ2 (untagged, GST removed) (human, UniProt Q92973-2 1-890)
T1 construct: Karyopherin β2 (Kapβ2, Transportin-1, TNPO1), human; used for ITC and turbidity assays; also called Karyopherin-β2; Transportin-1; source: E. coli BL21 (DE3), purified (GSH column, Tev cleavage, anion exchange, SEC Superdex200)
T1 sequence (looked up): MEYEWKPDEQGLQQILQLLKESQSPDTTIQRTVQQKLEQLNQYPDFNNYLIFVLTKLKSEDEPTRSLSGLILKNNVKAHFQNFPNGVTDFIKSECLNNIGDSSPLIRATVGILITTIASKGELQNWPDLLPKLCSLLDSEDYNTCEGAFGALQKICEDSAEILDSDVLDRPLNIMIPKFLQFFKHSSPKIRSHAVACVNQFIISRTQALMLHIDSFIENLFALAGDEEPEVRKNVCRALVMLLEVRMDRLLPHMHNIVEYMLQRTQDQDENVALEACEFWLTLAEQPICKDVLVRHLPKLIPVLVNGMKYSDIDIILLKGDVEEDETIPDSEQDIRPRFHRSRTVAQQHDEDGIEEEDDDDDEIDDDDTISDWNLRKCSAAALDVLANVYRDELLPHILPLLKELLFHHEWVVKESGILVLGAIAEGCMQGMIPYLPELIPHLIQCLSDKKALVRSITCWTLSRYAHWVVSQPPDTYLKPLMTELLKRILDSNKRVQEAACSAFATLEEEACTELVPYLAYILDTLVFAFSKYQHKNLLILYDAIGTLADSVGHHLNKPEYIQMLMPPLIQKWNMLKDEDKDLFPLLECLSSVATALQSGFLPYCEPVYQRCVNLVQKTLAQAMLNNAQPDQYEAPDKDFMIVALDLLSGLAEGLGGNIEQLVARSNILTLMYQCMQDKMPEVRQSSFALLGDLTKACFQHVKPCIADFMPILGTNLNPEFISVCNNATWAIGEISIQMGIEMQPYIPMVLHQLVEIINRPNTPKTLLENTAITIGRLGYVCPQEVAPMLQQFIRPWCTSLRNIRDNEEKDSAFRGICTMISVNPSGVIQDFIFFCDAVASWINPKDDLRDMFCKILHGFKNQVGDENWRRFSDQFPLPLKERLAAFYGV

T2: GST-Kapβ2 (Karyopherin-β2) (human, UniProt Q92973-2 1-890)
T2 construct: Karyopherin β2 (Kapβ2, Transportin-1, TNPO1), human; GST-importin eluted with glutathione and immobilised again on GSH beads for pull-downs; also called Transportin-1; TNPO1; source: E. coli BL21 (DE3), purified (GSH Sepharose, anion exchange, SEC)
T2 sequence (looked up): T1 sequence (looked up)

B1: MBP-FUS(371–500) (RGG2-ZnF-RGG3) (domain or fragment, UniProt P35637 371-500, looked up)
chain: RRADFNRGGGNGRGGRGRGGPMGRGGYGGGGSGGGGRGGFPSGGGGGGGQQRAGDWKCPNPTCENMNFSWRNECNQCKAPKPDGPGGGPGGSHMGGNYGDDRRGGRGGYDRGGYRGRGGDRGGFRGGRGG
notes: also called FUS RGG2-ZnF-RGG3; source: E. coli BL21 (DE3), purified (amylose resin, SEC); not shown: MBP, N-terminal, kept
B2: MBP-FUS(371–452) (RGG2-ZnF) (domain or fragment, UniProt P35637 371-452, looked up)
chain: RRADFNRGGGNGRGGRGRGGPMGRGGYGGGGSGGGGRGGFPSGGGGGGGQQRAGDWKCPNPTCENMNFSWRNECNQCKAPKP
notes: also called FUS RGG2-ZnF; source: E. coli BL21 (DE3), purified (amylose resin, SEC); not shown: MBP, N-terminal, kept
B3: MBP-FUS PY-NLS (residues 475–526) (domain or fragment, UniProt P35637 475-526, looked up)
chain: GRGGYDRGGYRGRGGDRGGFRGGRGGGDRGGFGPGKMDSRGEHRQDRRERPY
notes: FUS residues 475–526 (PY-NLS); also called FUS(475–526); WT FUS^PY-NLS; source: E. coli BL21 (DE3), purified (amylose resin, SEC); not shown: MBP, N-terminal, kept
B4: MBP-FUS PY-NLS (P525L) (residues 475–526) (domain or fragment, UniProt P35637 475-526, looked up)
chain: B3 chain with P51L
notes: FUS residues 475–526 with the ALS mutation P525L; also called FUS(P525L)^PY-NLS; source: E. coli BL21 (DE3), purified (amylose resin, SEC); not shown: MBP, N-terminal, kept
B5: MBP-FUS(1–500) (domain or fragment, UniProt P35637 1-500, looked up)
chain: MASNDYTQQATQSYGAYPTQPGQGYSQQSSQPYGQQSYSGYSQSTDTSGYGQSSYSSYGQSQNTGYGTQSTPQGYGSTGGYGSSQSSQSSYGQQSSYPGYGQQPAPSSTSGSYGSSSQSSSYGQPQSGSYSQQPSYGGQQQSYGQQQSYNPPQGYGQQNQYNSSSGGGGGGGGGGNYGQDQSSMSSGGGSGGGYGNQDQSGGGGSGGYGQQDRGGRGRGGSGGGGGGGGGGYNRSSGGYEPRGRGGGRGGRGGMGGSDRGGFNKFGGPRDQGSRHDSEQDNSDNNTIFVQGLGENVTIESVADYFKQIGIIKTNKKTGQPMINLYTDRETGKLKGEATVSFDDPPSAKAAIDWFDGKEFSGNPIKVSFATRRADFNRGGGNGRGGRGRGGPMGRGGYGGGGSGGGGRGGFPSGGGGGGGQQRAGDWKCPNPTCENMNFSWRNECNQCKAPKPDGPGGGPGGSHMGGNYGDDRRGGRGGYDRGGYRGRGGDRGGFRGGRGG
notes: FUS residues 1–500; in the turbidity assays MBP is cut off by Tev during the assay; source: E. coli BL21 (DE3), purified (amylose resin, SEC); not shown: MBP, N-terminal, kept
B6: MBP-FUS(1–370) (domain or fragment, UniProt P35637 1-370, looked up)
chain: MASNDYTQQATQSYGAYPTQPGQGYSQQSSQPYGQQSYSGYSQSTDTSGYGQSSYSSYGQSQNTGYGTQSTPQGYGSTGGYGSSQSSQSSYGQQSSYPGYGQQPAPSSTSGSYGSSSQSSSYGQPQSGSYSQQPSYGGQQQSYGQQQSYNPPQGYGQQNQYNSSSGGGGGGGGGGNYGQDQSSMSSGGGSGGGYGNQDQSGGGGSGGYGQQDRGGRGRGGSGGGGGGGGGGYNRSSGGYEPRGRGGGRGGRGGMGGSDRGGFNKFGGPRDQGSRHDSEQDNSDNNTIFVQGLGENVTIESVADYFKQIGIIKTNKKTGQPMINLYTDRETGKLKGEATVSFDDPPSAKAAIDWFDGKEFSGNPIKVSFAT
notes: FUS residues 1–370 (missing RGG2-ZnF-RGG3-PYNLS); also called FUS LC-RGG1; source: E. coli BL21 (DE3), purified (amylose resin, SEC); not shown: MBP, N-terminal, kept
B7: MBP-FUS(121–500) (domain or fragment, UniProt P35637 121-500, looked up)
chain: SYGQPQSGSYSQQPSYGGQQQSYGQQQSYNPPQGYGQQNQYNSSSGGGGGGGGGGNYGQDQSSMSSGGGSGGGYGNQDQSGGGGSGGYGQQDRGGRGRGGSGGGGGGGGGGYNRSSGGYEPRGRGGGRGGRGGMGGSDRGGFNKFGGPRDQGSRHDSEQDNSDNNTIFVQGLGENVTIESVADYFKQIGIIKTNKKTGQPMINLYTDRETGKLKGEATVSFDDPPSAKAAIDWFDGKEFSGNPIKVSFATRRADFNRGGGNGRGGRGRGGPMGRGGYGGGGSGGGGRGGFPSGGGGGGGQQRAGDWKCPNPTCENMNFSWRNECNQCKAPKPDGPGGGPGGSHMGGNYGDDRRGGRGGYDRGGYRGRGGDRGGFRGGRGG
notes: source: E. coli BL21 (DE3), purified (amylose resin, SEC); not shown: MBP, N-terminal, kept
B8: MBP-FUS(277–500) (domain or fragment, UniProt P35637 277-500, looked up)
chain: SEQDNSDNNTIFVQGLGENVTIESVADYFKQIGIIKTNKKTGQPMINLYTDRETGKLKGEATVSFDDPPSAKAAIDWFDGKEFSGNPIKVSFATRRADFNRGGGNGRGGRGRGGPMGRGGYGGGGSGGGGRGGFPSGGGGGGGQQRAGDWKCPNPTCENMNFSWRNECNQCKAPKPDGPGGGPGGSHMGGNYGDDRRGGRGGYDRGGYRGRGGDRGGFRGGRGG
notes: as for B7
B9: MBP-FUS(1–452) (domain or fragment, UniProt P35637 1-452, looked up)
chain: MASNDYTQQATQSYGAYPTQPGQGYSQQSSQPYGQQSYSGYSQSTDTSGYGQSSYSSYGQSQNTGYGTQSTPQGYGSTGGYGSSQSSQSSYGQQSSYPGYGQQPAPSSTSGSYGSSSQSSSYGQPQSGSYSQQPSYGGQQQSYGQQQSYNPPQGYGQQNQYNSSSGGGGGGGGGGNYGQDQSSMSSGGGSGGGYGNQDQSGGGGSGGYGQQDRGGRGRGGSGGGGGGGGGGYNRSSGGYEPRGRGGGRGGRGGMGGSDRGGFNKFGGPRDQGSRHDSEQDNSDNNTIFVQGLGENVTIESVADYFKQIGIIKTNKKTGQPMINLYTDRETGKLKGEATVSFDDPPSAKAAIDWFDGKEFSGNPIKVSFATRRADFNRGGGNGRGGRGRGGPMGRGGYGGGGSGGGGRGGFPSGGGGGGGQQRAGDWKCPNPTCENMNFSWRNECNQCKAPKP
notes: as for B7
B10: MBP-FUS(1–430) (domain or fragment, UniProt P35637 1-430, looked up)
chain: MASNDYTQQATQSYGAYPTQPGQGYSQQSSQPYGQQSYSGYSQSTDTSGYGQSSYSSYGQSQNTGYGTQSTPQGYGSTGGYGSSQSSQSSYGQQSSYPGYGQQPAPSSTSGSYGSSSQSSSYGQPQSGSYSQQPSYGGQQQSYGQQQSYNPPQGYGQQNQYNSSSGGGGGGGGGGNYGQDQSSMSSGGGSGGGYGNQDQSGGGGSGGYGQQDRGGRGRGGSGGGGGGGGGGYNRSSGGYEPRGRGGGRGGRGGMGGSDRGGFNKFGGPRDQGSRHDSEQDNSDNNTIFVQGLGENVTIESVADYFKQIGIIKTNKKTGQPMINLYTDRETGKLKGEATVSFDDPPSAKAAIDWFDGKEFSGNPIKVSFATRRADFNRGGGNGRGGRGRGGPMGRGGYGGGGSGGGGRGGFPSGGGGGGGQQRAGDWKCPN
notes: FUS residues 1–430 (missing ZnF-RGG3-PYNLS); source: E. coli BL21 (DE3), purified (amylose resin, SEC); not shown: MBP, N-terminal, kept
B11: MBP-FUS (full length) (natural protein, UniProt P35637 1-526, looked up)
chain: MASNDYTQQATQSYGAYPTQPGQGYSQQSSQPYGQQSYSGYSQSTDTSGYGQSSYSSYGQSQNTGYGTQSTPQGYGSTGGYGSSQSSQSSYGQQSSYPGYGQQPAPSSTSGSYGSSSQSSSYGQPQSGSYSQQPSYGGQQQSYGQQQSYNPPQGYGQQNQYNSSSGGGGGGGGGGNYGQDQSSMSSGGGSGGGYGNQDQSGGGGSGGYGQQDRGGRGRGGSGGGGGGGGGGYNRSSGGYEPRGRGGGRGGRGGMGGSDRGGFNKFGGPRDQGSRHDSEQDNSDNNTIFVQGLGENVTIESVADYFKQIGIIKTNKKTGQPMINLYTDRETGKLKGEATVSFDDPPSAKAAIDWFDGKEFSGNPIKVSFATRRADFNRGGGNGRGGRGRGGPMGRGGYGGGGSGGGGRGGFPSGGGGGGGQQRAGDWKCPNPTCENMNFSWRNECNQCKAPKPDGPGGGPGGSHMGGNYGDDRRGGRGGYDRGGYRGRGGDRGGFRGGRGGGDRGGFGPGKMDSRGEHRQDRRERPY
notes: Fused in Sarcoma (FUS), full length; in the turbidity assays MBP is cut off by Tev during the assay; also called FL-FUS; MBP-FL FUS; source: E. coli BL21 (DE3), purified (amylose resin, SEC); not shown: MBP, N-terminal, kept

biological target: T1, Kapβ2 (untagged, GST removed); test: ITC; 10 μM Kapβ2 in the cell, 100 μM or 200 μM MBP-FUS protein in the syringe; 20 mM Tris–HCl, 150 mM NaCl, 10% glycerol, 2 mM BME; 20 °C; single class of binding sites, global analysis of duplicates or triplicates; conditions: both partners purified

Row | Binder | Kd
1 | B1 | 170 nM
2 | B2 | 4000 nM
3 | B3 | 31 nM
4 | B4 | 180 nM

biological target: T1, Kapβ2 (untagged, GST removed); test: ITC; reversed set-up: 10 μM MBP-FUS protein in the cell, 100 μM or 200 μM Kapβ2 in the syringe; 20 mM Tris–HCl, 150 mM NaCl, 10% glycerol, 2 mM BME; 20 °C; single class of binding sites; 'apparent' KD for FUS(1–370); conditions: both partners purified

Row | Binder | Kd
5 | B5 | 160 nM
6 | B6 | 35000 nM

biological target: T2, GST-Kapβ2 (Karyopherin-β2); test: pull-down; 4–8 μM GST-importin (or GST) immobilised on 50 μL GSH beads; 4–8 μM MBP-FUS protein or GSP1 added in 100 μL; 20 mM HEPES pH 7.4, 110 mM potassium acetate, 2 mM magnesium acetate, 2 mM DTT, 15% glycerol; 30 min at 25 °C, three washes; Coomassie-stained SDS-PAGE; conditions: both partners purified

Row | Binder | binding result
7 | B7 | binds
8 | B8 | binds
9 | B9 | binds
10 | B10 | binds
11 | B11 | binds
